Test results reported in patent publication US20180142018A1 (NOVIMMUNE, published 2018).

Key:
[1] = biological target: T1, human CD19 (human, UniProt P15391 20-556); experiment: FACS on human PBMC gated on CD20+ B lymphocytes, 30 and 3 µg/mL
T1 construct: whole, on cells; also called huCD19
T1 sequence (looked up): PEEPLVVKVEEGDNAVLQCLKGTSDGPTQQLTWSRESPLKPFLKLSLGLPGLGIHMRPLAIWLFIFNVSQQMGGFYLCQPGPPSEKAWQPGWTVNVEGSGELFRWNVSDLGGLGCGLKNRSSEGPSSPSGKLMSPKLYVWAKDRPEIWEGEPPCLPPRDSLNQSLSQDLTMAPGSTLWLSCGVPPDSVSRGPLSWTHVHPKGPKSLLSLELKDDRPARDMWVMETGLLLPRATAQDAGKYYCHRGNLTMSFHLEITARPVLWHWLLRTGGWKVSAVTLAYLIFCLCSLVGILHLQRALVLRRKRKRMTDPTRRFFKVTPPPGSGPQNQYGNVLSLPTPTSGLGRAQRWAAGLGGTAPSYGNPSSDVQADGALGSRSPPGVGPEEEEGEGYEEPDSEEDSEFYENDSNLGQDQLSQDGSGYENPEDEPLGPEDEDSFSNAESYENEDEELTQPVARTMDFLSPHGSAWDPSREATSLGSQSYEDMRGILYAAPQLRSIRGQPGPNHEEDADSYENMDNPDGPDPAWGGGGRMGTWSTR
Description: (§1) The ability of various anti-CD19 antibodies of the disclosure to bind various peripheral blood mononuclear cells (PBMC). Human and cynomolgus PBMC from frozen aliquots in citrate buffer were tested. […] The PBMC were labelled with anti-CD20-PE monoclonal antibody (mAb), anti-CD14-FITC mAb, and anti-CD3-PerCP mAb cross-reactive both to human and cynomolgus species. Cell surface bound hIgG1 were detected with a mouse anti-human IgG Fc-APC mAb. FACS gating was performed with the anti-CD20 mAb for the B lymphocyte population, with the anti-CD3 for the T lymphocyte population and with anti-CD14 for the monocyte population.

[2] = biological target: T2, cynomolgus CD19 (cynomolgus monkey, UniProt A0A2K5W8L9 20-557); experiment: FACS on PBMC CD20+ B lymphocytes; human over cynomolgus, told of the group of anti-CD19 antibodies
T2 construct: whole, on cells; also called cynoCD19; cynomolgus monkey CD19
T2 sequence: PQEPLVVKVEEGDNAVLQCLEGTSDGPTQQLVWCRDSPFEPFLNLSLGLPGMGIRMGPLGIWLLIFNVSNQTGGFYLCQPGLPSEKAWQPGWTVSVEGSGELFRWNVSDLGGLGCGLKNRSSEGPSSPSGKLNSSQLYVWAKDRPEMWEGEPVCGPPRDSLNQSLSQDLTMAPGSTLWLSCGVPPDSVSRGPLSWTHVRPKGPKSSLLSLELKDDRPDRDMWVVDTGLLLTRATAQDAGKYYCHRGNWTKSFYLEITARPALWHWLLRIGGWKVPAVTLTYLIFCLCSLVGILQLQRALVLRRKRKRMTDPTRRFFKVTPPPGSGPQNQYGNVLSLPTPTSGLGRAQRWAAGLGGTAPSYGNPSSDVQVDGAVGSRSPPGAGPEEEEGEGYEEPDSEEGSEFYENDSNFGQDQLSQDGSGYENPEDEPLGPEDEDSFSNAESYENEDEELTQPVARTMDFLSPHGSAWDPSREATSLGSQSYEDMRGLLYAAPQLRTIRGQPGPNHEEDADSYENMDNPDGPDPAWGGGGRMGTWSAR
Description: as §1

[3] = biological target: T1, human CD19; experiment: FACS on human B lymphocyte cell lines (Raji, Ramos, Nalm6, Su-DHL6, Su-DHL4, Mec2); binding lost on CD19-silenced Raji siRNA
Description: The ability of various anti-CD19 antibodies of the disclosure to bind various human B lymphocyte cell lines was evaluated. In particular, the human IgG1 5F5, 7F11, 9G8, F6, 7F1, and 10D8 anti-CD19 antibodies were evaluated for their abilities to bind (i) six human B lymphocyte cell lines: Raji, Ramos, Nalm6, Su-DHL6, Su-DHL4, and Mec2, (ii) a CD19 silenced B cell line: Raji siRNA; and a negative cell line (Jurkat). All incubations were prepared in FACS buffer (PBS, BSA 2%) at 4° C. Fc receptors on B cells were blocked with 10% mouse serum. Four doses of hIgG1 were tested: 10, 1, 0.1 and 0.01 μg/mL. Cell surface bound hIgG1 were detected with a mouse anti-human IgG Fc-PE mAb.

B1: 7F11 antibody (antibody, human IgG1, V domains shown)
VH: EVQLVQSGAEVKKPGESLKISCKGSGYSFTSYWIGWVRQMPGKGLEWMGIIYPGDSDTRYSPSFQGQVTISADKSISTAYLQWSSLKASDTAMYYCARGVSGIYNLHGFDIWGQGTLVTVSS
VL: DIQMTQSPSSLSASVGDRVTITCRASQSISSYLNWYQQKPGKAPKLLIYAASSLQSGVPSRFSGSGSGTDFTLTISSLQPEDFATYYCQQGMWDNPFTFGQGTKVEIK
notes: also called human IgG1 7F11 anti-CD19 antibody
binding result [1]: binds | fold higher binding on human than on cynomolgus PBMC [2]: ≤ 10 fold

B2: 9G8 antibody (antibody, human IgG1, V domains shown)
VH: EVQLVQSGAEVKKPGESLKISCKGSGYSFTSYWIGWVRQMPGKGLEWMGIIYPGDSDTRYSPSFQGQVTISADKSISTAYLQWSSLKASDTAMYYCARGVSGIYNLHGFDIWGQGTLVTVSS
VL: DIQMTQSPSSLSASVGDRVTITCRASQSISSYLNWYQQKPGKAPKLLIYAASSLQSGVPSRFSGSGSGTDFTLTISSLQPEDFATYYCQQGRFGSPFTFGQGTKVEIK
notes: also called human IgG1 9G8 anti-CD19 antibody
binding result [1]: binds | fold higher binding on human than on cynomolgus PBMC [2]: ≤ 10 fold

B3: 5F5 antibody (antibody, human IgG1, V domains shown)
VH: EVQLVQSGAEVKKPGESLKISCKGSGYSFTSYWIGWVRQMPGKGLEWMGIIYPGDSDTRYSPSFQGQVTISADKSISTAYLQWSSLKASDTAMYYCARGISGIYNLHGFDIWGQGTLVTVSS
VL: DIQMTQSPSSLSASVGDRVTITCRASQSISSYLNWYQQKPGKAPKLLIYAASSLQSGVPSRFSGSGSGTDFTLTISSLQPEDFATYYCQQASLDSPLTFGQGTKVEIK
notes: also called human IgG1 5F5 anti-CD19 antibody
binding result [3]: binds | fold higher binding on human than on cynomolgus PBMC [2]: ≤ 10 fold

B4: 10D8 antibody (antibody, human IgG1, V domains shown)
VH: QVQLVQSGAEVKKPGSSVKVSCKASGGTFSSYAISWVRQAPGQGLEWMGGIIPIFGTANYAQKFQGRVTITADESTSTAYMELSSLRSEDTAVYYCARDRGYDYVWGSYRYGAFDIWGQGTLVTVSS
VL: QSALTQPASVSGSPGQSITISCTGTSSDVGGYNYVSWYQQHPGKAPKLMIYEVSNRPSGVSNRFSGSKSGNTASLTISGLQAEDEADYYCSSYDVWVPHMVFGGGTKLTVL
notes: also called human IgG1 10D8 anti-CD19 antibody
binding result [1]: binds

B5: F6 antibody (antibody, human IgG1, V domains shown)
VH: EVQLVQSGAEVKKPGESLKISCKGSGYSFTSYWIGWVRQMPGKGLEWMGIIYPGDSDTRYSPSFQGQVTISADKSISTAYLQWSSLKASDTAMYYCARVWYYDFWSGADAFDIWGQGTLVTVSS
VL: EIVMTQSPATLSVSPGERATLSCRASQSVSSNLAWYQQKPGQAPRLLIYGASTRATGIPARFSGSGSGTEFTLTISSLQSEDFAVYYCQQGSLEAPQTFGQGTKVEIK
notes: also called human IgG1 F6 anti-CD19 antibody
binding result [1]: binds | fold higher binding on human than on cynomolgus PBMC [2]: ≤ 10 fold

B6: 7F1 antibody (antibody, human IgG1, V domains shown)
VH: EVQLVQSGAEVKKPGESLKISCKGSGYSFTSYWIGWVRQMPGKGLEWMGIIYPGDSDTRYSPSFQGQVTISADKSISTAYLQWSSLKASDTAMYYCARGDYWTGFAYWGQGTLVTVSS
VL: QSVLTQPPSVSAAPGQKVTISCSGSSSNIGNNYVSWYQQLPGTAPKLLIYDNNKRPSGIPDRFSGSKSGTSATLGITGLQTGDEADYYCGTWDLGWNSVFGGGTKLTVL
notes: also called human IgG1 7F1 anti-CD19 antibody
binding result [1]: binds
